system: Escherichia coli TOP10; test: shrunken log2 fold change of peptide-encoding DNA abundance (4.5 h post-induction vs induction); higher = less antimicrobial activity (less host growth inhibition); conditions: time post-induction: 4.5 h; library: site-saturation at positions 5, 18, 19, 20
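Note: peptides expressed intracellularly from a pBAD plasmid library in pooled LB shake-flask culture, induced with 0.3% L-arabinose, DNA abundance read by NGS, three biological replicates, DESeq2 with apeglm shrinkage.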

Sequence | shrunken log2 fold change
RRIRMRPPRLPRPRPRPDNWPRP | 0.402
RRIRTRPPRLPRPRPRPLSNPRP | 0.012
RRIRLRPPRLPRPRPRPDGQPRP | 0.00145
RRIRFRPPRLPRPRPRPKRLPRP | 0.0144
RRIRERPPRLPRPRPRPYNKPRP | -1.11
RRIRFRPPRLPRPRPRPKFAPRP | 0.102
RRIRARPPRLPRPRPRPFYAPRP | -0.066
RRIRRRPPRLPRPRPRPDAKPRP | 0.644
RRIRQRPPRLPRPRPRPCRGPRP | 0.104
RRIRNRPPRLPRPRPRPSVCPRP | -0.174
RRIRKRPPRLPRPRPRPRIYPRP | -0.0634
RRIRQRPPRLPRPRPRPFDMPRP | -0.123
RRIRERPPRLPRPRPRPNNVPRP | -0.28
RRIRGRPPRLPRPRPRPVWTPRP | 0.674
RRIRIRPPRLPRPRPRPVHGPRP | -0.0643
RRIRKRPPRLPRPRPRPRKTPRP | 0.303
RRIRMRPPRLPRPRPRPHNDPRP | 0.00915
RRIRPRPPRLPRPRPRPMFPPRP | 0.0316
RRIRNRPPRLPRPRPRPRYIPRP | -0.455
RRIRKRPPRLPRPRPRPDCGPRP | 0.016
RRIRRRPPRLPRPRPRPNMMPRP | -0.245
RRIRARPPRLPRPRPRPPRYPRP | 0.896

Sequence | shrunken log2 fold change
RRIRPRPPRLPRPRPRPDFIPRP | -0.233
RRIRNRPPRLPRPRPRPEYVPRP | -0.05
RRIRFRPPRLPRPRPRPTHQPRP | 2.65
RRIRTRPPRLPRPRPRPQNPPRP | -0.148
RRIRRRPPRLPRPRPRPTNWPRP | 0.37
RRIRGRPPRLPRPRPRPRSKPRP | 0.781
RRIRMRPPRLPRPRPRPFNEPRP | -0.488
RRIRCRPPRLPRPRPRPWQNPRP | -0.124
RRIRCRPPRLPRPRPRPYAFPRP | -0.425
RRIRLRPPRLPRPRPRPDFPPRP | 0.24
RRIRGRPPRLPRPRPRPMHLPRP | 0.186
RRIRCRPPRLPRPRPRPHKAPRP | -0.253
RRIRYRPPRLPRPRPRPLLQPRP | -0.309
RRIRERPPRLPRPRPRPDVKPRP | -0.213
RRIRERPPRLPRPRPRPKPTPRP | 0.148
RRIRIRPPRLPRPRPRPVVEPRP | -0.0638
RRIRRRPPRLPRPRPRPYNHPRP | -0.8
RRIRRRPPRLPRPRPRPREKPRP | 0.0627
RRIRVRPPRLPRPRPRPQWRPRP | -0.0106
RRIRKRPPRLPRPRPRPSWIPRP | -0.487
RRIRMRPPRLPRPRPRPVYNPRP | -0.17
RRIRDRPPRLPRPRPRPYYIPRP | -0.0955

Sequence | shrunken log2 fold change
RRIRMRPPRLPRPRPRPPFAPRP | 1.07
RRIRIRPPRLPRPRPRPVQIPRP | 0.072
RRIRERPPRLPRPRPRPNIAPRP | 0.0918
RRIRGRPPRLPRPRPRPMWNPRP | 0.557
RRIRNRPPRLPRPRPRPFINPRP | -1.59
RRIRTRPPRLPRPRPRPHYMPRP | -0.476
RRIRRRPPRLPRPRPRPLAGPRP | 0.477
RRIRNRPPRLPRPRPRPASKPRP | 0.0111
RRIRIRPPRLPRPRPRPKHEPRP | 0.0924
RRIRRRPPRLPRPRPRPYTVPRP | -0.325
RRIRSRPPRLPRPRPRPHQHPRP | -0.321
RRIRCRPPRLPRPRPRPDWNPRP | -0.523
RRIRDRPPRLPRPRPRPPCIPRP | -0.264
RRIRFRPPRLPRPRPRPQMRPRP | 0.495
RRIRQRPPRLPRPRPRPPPTPRP | 0.913
RRIRFRPPRLPRPRPRPCWQPRP | 3.76
RRIRIRPPRLPRPRPRPMWSPRP | 0.045
RRIRLRPPRLPRPRPRPPLSPRP | -0.00759
RRIRKRPPRLPRPRPRPTIAPRP | 0.541
RRIRLRPPRLPRPRPRPKWAPRP | -0.0391
RRIRWRPPRLPRPRPRPYKAPRP | 0.0233
RRIRFRPPRLPRPRPRPPEWPRP | 0.139

Sequence | shrunken log2 fold change
RRIRNRPPRLPRPRPRPNCYPRP | -0.618
RRIRMRPPRLPRPRPRPPTSPRP | 1.23
RRIRLRPPRLPRPRPRPTQQPRP | 0.0862
RRIRFRPPRLPRPRPRPSPVPRP | -0.00168
RRIRSRPPRLPRPRPRPRHFPRP | 0.141
RRIRKRPPRLPRPRPRPDDTPRP | 2.31
RRIRVRPPRLPRPRPRPWMTPRP | -0.0714
RRIRVRPPRLPRPRPRPITLPRP | 1.44
RRIRVRPPRLPRPRPRPFSYPRP | -0.012
RRIRFRPPRLPRPRPRPQIFPRP | -0.172
RRIRIRPPRLPRPRPRPMCMPRP | -0.216
RRIRLRPPRLPRPRPRPSKSPRP | -0.0582
RRIRPRPPRLPRPRPRPHSFPRP | -0.0599
RRIRMRPPRLPRPRPRPVQGPRP | 0.0203
RRIRPRPPRLPRPRPRPARIPRP | 0.14
RRIRVRPPRLPRPRPRPIEAPRP | -0.00729
RRIRNRPPRLPRPRPRPGNCPRP | -0.00183
RRIRYRPPRLPRPRPRPSKIPRP | -0.502
RRIRNRPPRLPRPRPRPWSWPRP | 0.266
RRIRERPPRLPRPRPRPFLTPRP | -0.506
RRIRIRPPRLPRPRPRPRYKPRP | -0.593
RRIRSRPPRLPRPRPRPHSFPRP | 0.176

Sequence | shrunken log2 fold change
RRIRYRPPRLPRPRPRPDTYPRP | -0.145
RRIRNRPPRLPRPRPRPWLHPRP | -0.0277
RRIRRRPPRLPRPRPRPLRQPRP | 1.04
RRIRDRPPRLPRPRPRPTCGPRP | 1.11
RRIRSRPPRLPRPRPRPCSMPRP | -0.441
RRIRDRPPRLPRPRPRPGNTPRP | -0.165
RRIRRRPPRLPRPRPRPIREPRP | 0.208
RRIRVRPPRLPRPRPRPTYAPRP | 0.141
RRIRMRPPRLPRPRPRPWTHPRP | -0.136
RRIRERPPRLPRPRPRPYRKPRP | -0.264
RRIRNRPPRLPRPRPRPRQIPRP | 0.151
RRIRQRPPRLPRPRPRPNLYPRP | -0.647
RRIRHRPPRLPRPRPRPLMPPRP | -0.107
RRIRKRPPRLPRPRPRPRISPRP | -0.258
RRIRARPPRLPRPRPRPDVPPRP | -0.0329
RRIRTRPPRLPRPRPRPAIMPRP | -0.0824
RRIRKRPPRLPRPRPRPFYLPRP | -0.154
RRIRIRPPRLPRPRPRPESEPRP | -0.0338
RRIRPRPPRLPRPRPRPRIGPRP | 0.0981
RRIRARPPRLPRPRPRPRGPPRP | 0.933
RRIRWRPPRLPRPRPRPYIMPRP | -0.116

— the supplement of paper PMC9112550, “Optimization of the antimicrobial peptide Bac7 by deep mutational scanning” (BMC Biology, 2022)
